Experiment: soluble on expression in E. coli; label from the status in PepcDB or PDB records

Sequence	soluble on expression in E. coli
MPTRKSKILDVALSNSVISNLNIMAPIGSSDHNTIKFTVQLLQNISVPKKMIPDFSKLDWPCCATYFENIEWGHIRTMFSQAVPTMPMPETSKPVPQYLRSFEQMVKNQFSKTIMSKTMNDFIEYIYLARKYRKKLRKYLSNLEVKLFKKKGNTLIDNDENEIVSELDKANLLASYFEAQYTNQNNTNFALDDDFVSDQPIPWVTDAEVLKVIMASKKSCSVTSDQVPFTFIKILSPLISSVLAQIFNLSMMRGQVPHAWTESIVIPLDKITNANNPTDFRPISLTSHLCRVYERCILAKIELFLIDNKFWSQNQHGFRPKKSTVTNMLESLNDWSKSIDLGEQIDIIYLDFSKAFDRLPHDLLLDKLVSLRMNKNLLIWLNEFLSNRSFRVRIGQTLSSRKLATCGVPQGAVLSPLLFGIYVNDISSILPEKVACKQFADDTKLYVSTPKTESENNLQSALDAVVDWTRGSKLTLNQSETVHVTVGKRRTDFKYHLDGYPIERKAITRDLGFLISEKLDFSEHWRKCINLAKFQLANMFNQYSTSNKKLMILLYKTFIRPRLEYGTVVSSPTKKSDEKAIESVQNAFTRRLYSRIKKRYINPTDKDYKTAMERNELFDLQTLSTRRKIIDRIQVIRMNNGKVDLKTSEFFEQQETHTRSKKKYIWSTVPIKHRVFQTFILLMVLVQFSIGLGNFARDIRNFGGAGSGNKTCDPSRDNDCDSPATVPSSTTKAPRYRNNTTESPPPTPPSSPPAPEGIYSFLQNNFIPRKINNLPVFQDVTTKGIQHVILVSSRLRTSLQTEKSRISQNSISYLIIDFLKSITLEIEALTNTSNCKPNSKDLRCPGKPLFCKFKNFDAAECKCSEPRAKVCKEDFEFDAQREYCTKSVKHPKDLRCEGELLFFKFHWNTTACHCINHQRDRVCAHDFQSDEDKKYQCNKKPTDLRCKKQKLYCKFHLDDKDCRCFESNQKACKKGVSGFYSSNDTLKFPSSIWRQFKLYFKKILQIFNRQMRGIFNVIHHRLHHSARKT	not soluble
MPYEADDYLSRHFQTSGTDLARKVDELAALAAPGDSPNLALYREMLFTVTRMAQADRNRWDAKIMLQTLREMEHAFSVLEQFKRRRKVTVFGSARTPVEHPVYALARKLGEELARYDLMVITGAGGGIMAAAHEGAGLENSLGFNITLPFEQHANHTVDGSGNLLSFHFFFLRKLFFVKEADALVLCPGGFGTLDEALEVLTLVQTGKSPLVPIVLLDQPGGRYWEHALEFMQEQLLENHYILPADMRLMRLVHSAEDAVKEIAQFYRNFHSSRWLKGTFVIRLNHALNEAALAHLHEHFASLCLSGGFQQQAYSEQEQDEPEFRNLTRLAFVFNGRDQGRLRELLDYINLPENWD	not soluble
MDLADLMEVENGDHSINQKHVQITFFSKDEEIPQIPDAVFDVPTGAECDDMNLLLNKTIEANDGAWKERRFEFLVGETFLRTSLAEFIEEYEVETETILKVECVIGIEAPKPLHDIQAPDWVSSVQIANGHIFSTTYGGDIVIVDRKGKETKLAVNSANRLLKCISIVKAPSKKNQLDGTEFVVGGENQLLTLYAIEKGALVEKLILRGHERAVECVSVNSDSTRAISGSVDTNLKIWNLDASDEATTYEKEEEEESAKKRRKKETKTKVPMVTIGGHRDKVSAVEWCPWNSGHAFSCSWDHTIVEWDLELAGEISRIKGPKSFTSIDLHPKSDLLISSCTDAIPRLYDPKNRDGSMVKQSFIGHQNGWVEAVKWNPLDTNQFVSVSTDKTAKMWDVRSSKSSLFDIHGHDDRILCATWNEGLIATGSADCTIKIFETA	not soluble
MVHHDGFQTVKGTIDWEHPMYKLYEKAKRNGKWNPADIDFSQDKEDFARLTSEEKIAALPLVAGFSAGEEAVTLDILPMAHALARQGRLEDVMFLTTFMHDEAKHVEMFSRWQQEVGIGAMDLSVFHNDHYKRIFYEALPEAMNRLYTDDSPEAVIRAATVYNMIVEGTLAESGYYTFRQIYKKAGLFPGLLQGIDYLNMDEGRHIQFGLYTIQRLVNENERYYDLFIQYMDELWPHVVGYVAYLTELGKRQQQLARTYALEIDYDMLNNYVVKQFNIRKKQISRAKRVDSIEELEKTVAES	not soluble
MHHHHHHSSGRENLYFQGNFDYMFKLLIIGNSSVGKTSFLFRYADDTFTPAFVSTVGIDFKVKTVYRHEKRVKLQIWDTAGQERYRTITTAYYRGAMGFILMYDITNEESFNAVQDWATQIKTYSWDNAQVILVGNKCDMEEERVVPTEKGQLLAEQLGFDFFEASAKENISVRQAFERLVDAICDKMSDS	soluble
MAHHHHHHMDAAIAQLRGCLEELLTYYPHVLRNVFEVEPSPLAAPKLSQQRPRDSSALADVIEDFLTELTRVLSIGLCDDDLGLWSVLELLECVPARMQAVAEATATAPETAALSKHGAQEPLQQLQRFRFASQLVYLVRSAFPATAPAVRARIFLRLTLNQGCLVAALELLREWCRSELLVFYAASDRGRRNGAAGSASSVALLVQSDTDSDMWNSFVAAIAPVAGPPVAEIAAGAPKVAAQPFHLQLLVPGLDDNSAASHAYYTQVENYACGRQPTRPSALACYRAALRQHSGSARKHDRSFRAASAGEGAASSPKLSPHPAEQLVLRVESLSVDHRTASGKEVAPVSRGNVSYDSSSTLSSRPMTLEPLSFVHRERLRGAKKRRRRHPSLSTAGAVAREEDAAGSPTPEGKTDNTTSDNTGSVAEAALHTSTVVTEAKECQGAPEAGEKAAPPYRDDYASRDDDPQVAPTVGETGAAQAASRALDTVSTDSPASAPHCLSPALRAAESPNRTLDSSSAPALSPELRNLQHRLWLCWLAVVTHAESEERIRITVRDVDANIS	not soluble
MIVPEVSSSSTNEANVPESSAGKYTYKDIRDDRVLTYFDLRRGESKTFTVRLQATYAGNFILPAIQCEAMYDAAVQARTKAGRTTVSR	not soluble
MELRELFEVQGELDAHIEKIHPRKEGEKRLEEKILALQTELGEIANEWRQFKFWSNDREPRTERLLEEYVDGFHFVLSIGLEESKRYGQSVPIRLGLPDELTSICYETTIQQFNYLFSEIGRLYDSVTLHEVAADTEVEEAYENIIRMFIGLGEKLGFTEKEIAEGYMRKNMINHERQKNGY	not soluble
MSLKLFPQFDGISLKDRFFLLESFKVDVLANNVYYTESSLVPFLSKMKGVLARDGNIKHYLAEGKRICVLGDVHGSPMDVSAFYDLCMLKDVQLQCFQEVGDDRGSQFTMDLSSVYVFLGDYVDRGSRGLACVLFIYVLKYLYPRNVLLLRGNHECDAMNRIYGFTKEIYKYYGSHSPIYQAIQDTFAAIPYFFRLIYLPQSLCRALERFCNRVIPSASSSTRWTNSEIMCLASMVSSVTSWAGQAGATNEAKLDDLADSQEAHMLKCRLEEESLTIFCCHGGPPCVYTEYGRQLDLYLGIDSYENILQRSLTIVDPLAGELTWNDPAPHRFKSPSTLYEPSQRRLGYRYSYDLFRTWCKHTGVDLVLRGHEVALDGVHQDFQYAFEPKQLGGPNQELEYWFSVSTLRETPRHFTVFSSSFYEHLTNHGAAAIIRFEVPVDGVAPALVIRCFTLSEGHHHHHH	not soluble
MNKTELIKAIAQDTGLTQVSVSKMLASFEKIITETVAKGDKVQLTGFLNIKPVARQARKGFNPQTQEALEIAPSVGVSVKPGESLKKAAEGLKYEDFAK	soluble
MEINADFTKPVVIDTDQLEWRPSPMKGVERRMLDRIGGEVARATSIVRYAPGSRFSAHTHDGGEEFIVLDGVFQDEHGDYPAGTYVRNPPTTSHVPGSAEGCTIFVKLWQFDPADRTQFSKNMEAELGAPVEGISTSLLHEDERETVTHRKLEPGANLTSEAAGGIEVLVLDGDVTVNDEVLGRNAWLRLPEGEALSATAGARGAKIWMKTGHLRFVRTPEV	soluble
MGSDKIHHHHHHMSLQRPDEKLKSDVLIGVGLRHQHFTEALTTPSNIDFVEVHSENFFAQGGATQSVLAQASEKYAISLHSTAMGLGSAQGVPSHYLQKLKQLASTCNPILMSDHACFSWSQLKGQQVHAGDLLPLAYSEQTLMVLSHNIDRVQQSLGRSLLVENLSAYIQYSHACMPETEFLVRLAELTGCKLLVDLNNIIVTANNINAAQPLDYAQQWLAEIPTDMVGEIHLAGFTEVKEGELIIDDHSQAVSSQGWQLYRSALERFGKIPTLVEWDNNLPSWHTLVAEADKARMIAKQVFGDNNSSKITTAMTGLESEFIHE	not soluble
MTKQLPNLQVALDHSNLKGAITAAVSVGNEVDVIEAGTVCLLQVGSELVEVLRSLFPDKIIVADTKCADAGGTVAKNNAVRGADWMTCICSATIPTMKAARKAIEDINPDKGEIQVELYGDWTYDQAQQWLDAGISQAIYHQSRDALLAGETWGEKDLNKVKKLIEMGFRVSVTGGLSVDTLKLFEGVDVFTFIAGRGITEAKNPAGAARAFKDEIKRIWG	soluble
MGSDKIHHHHHHMLSRFSDSRPAVTVKNVALTYSGADKPALQIEDLTIPEGQCVVLCGQSDSGKSSFLKMLNGLTPEYYPAQLSGQIFLGDLDLQKSSLEEISRHIASVFQHPSTQFFHSQVLQELVFPCENQGLSREEIENRLAWVMELFGLASLSRRTISSLSGGQQQRLALAVTAMQGTDVLVLDEPTANLDQEGIAIVEDILKTLKSQGKTIIIAEHRLSYLSQLADRYLYFQDGQVVTDYLADEFLSRTEECRQDMGLRCYDSEPYGRAIAELADQFVNDKEGLLVENLSVSQKENTLYEIEKLCLASGQVVGLVGANGSGKTSLARYLVGLAEDKKSRISWQGQTLSSRQRLEKTAFVMQDVRLQLFAESVERELTLGRKNRAVDEHLVARFGLSDLLERHPVSLSGGEQQRVMIVASLLADKEIFIFDEPTSGLDLRRMQQVASALVDLKMKNKLVLLISHDEELLNLVCDKIVDIKQLK	not soluble
MHHHHHHSSGVDLGTENLYFQSMMASQNSFRIEYDTFGELKVPNDKYYGAQTVRSTMNFKIGGVTERMPTPVIKAFGILKRAAAEVNQDYGLDPKIANAIMKAADEVAEGKLNDHFPLVVWQTGSGTQTNMNVNEVISNRAIEMLGGELGSKIPVHPNDHVNKSQSSNDTFPTAMHIAAAIEVHEVLLPGLQKLHDALDAKSKEFAQIIKIGRTHTQDAVPLTLGQEFSGYVQQVKYAMTRIKAAMPRIYELAAGGTAVGTGLNTRIGFAEKVAAKVAALTGLPFVTAPNKFEALAAHDALVELSGAMNTTACSLMKIANDIRFLGSGPRSGLGELILPENEPGSSIMPGKVNPTQCEAMTMVAAQVMGNHVAVTVGGSNGHFELNVFKPMMIKNVLHSARLLGDASVSFTENCVVGIQANTERINKLMNESLMLVTALNPHIGYDKAAKIAKTAHKNGSTLKETAIELGYLTAEQFDEWVKPKDMLGPK	soluble
MQNEGQYAEADALLLSLVAAKDAHLMGERTVLGLPRRLHAARLRLAKAEGDLVARIGYQYTLVPPPDMLAKYTQFSAEDRRMINRKSREDVPRLIHQIWIGEKAPPISVKAWAAHAARHGYDYRLWREADLEREGVFSNAIFNRMLSEGDYPGAVDVARYILLERFGGIYLDCDWYPARDDRSFDAFVPLAGLTAFDEKTPRDTGQGSMLLANSFIAAPAGHPVFRKMLDSFPGIIEEMPRAPAWWSTGPLIFTVIARAGSISLAPASFVAVTLADRAPLEEVEAIRRELATQDSGMLIAWKSWLEHHHHHH	soluble
SEEFLQRAKSKLNRSKRLEKVHVVIGPKSCDLDSLISTFTYAYFLDKVSPPGVLCLPVLNIPRTEFNYFTETRFILEELNISESFHIFRDEINLHQLNDEGKLSITLVGSSVLASEDKTLESAVVKVINPVEQSDANVEFRESSSSLVLKEILQEAPELITEQLAHRLRGSILFKWMTMESEKISEKQEEILSILEEKFPNLPPREDIINVLQETQFSAQGLSIEQTMLKDLKELSDGEIKVAISTVSMNLEVRVGMLF	soluble
MGSDKIHHHHHHMFSAMLEVNPIPEQFDAYLGMAKMLRPELEKIEGFIDNERYESLTRPGWLLSLSNWRDEKSLIRWRTTTKHHKVQQAARDRIFADYRLRIGEVDTDTHLPIGEALHQQRLDVTEAGEGKAVTLLDADRSRYWLNGASAEAVAKSLGLDAQARGLLAWDVFKALLSPEEVIVVLTWRDEAAALAFGKNARLPGDVRLRSIRIVREYGMFDRREAPQYFEEVPRKA	not soluble

— the DeepSol protein solubility set
